According to patent publication US20110263454A1, “Methods of Identifying Functional Characteristics of Promoters, Transcription Modifying Proteins and Transcription Modulating Agents” (Salk Institute for Biological Studies, priority 2008, published 2011):

Assays:
[1] = system: mDio1 promoter; assay: NHR-promoter luciferase screen, mDio1 promoter; format: cell-based, mouse
Summary of the method: (§1)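 CV-1 cells were co-transfected with 50 ng NHR (homodimer or NHR/RXR heterodimer), 100 ng promoter-luciferase construct and 50 ng LacZ. Luciferase was normalized to LacZ and to a no-NHR/no-ligand control.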

[2] = system: RevErba promoter; assay: NHR-promoter luciferase screen, RevErba (RVRa) promoter; format: cell-based; parameters: key to mRevErba promoter reporter activity / Normalized Luc. act., normalized to control: luciferase activity normalized to lacZ and to control (no NHR/ligand)
Summary of the method: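 CV-1 cells co-transfected with NHR (pcDNA3.1, C-terminal V5H6 tag) as homodimer or RXR heterodimer, RevErbα promoter–luciferase reporter and LacZ transfection control; ligand added where applicable. Luciferase normalized to LacZ and to no-NHR/no-ligand control.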

[3] = system: mCAR promoter; assay: NHR-promoter luciferase screen, mCAR promoter; format: cell-based, mouse
Summary of the method: as §1

[4] = system: mDio2 promoter; assay: NHR-promoter luciferase screen, mDio2 promoter; format: cell-based, mouse
Summary of the method: as §1

[5] = system: mPOMC promoter; assay: NHR-promoter luciferase screen, mPOMC promoter; format: cell-based, mouse
Summary of the method: as §1

[6] = Dio1, HR component without or with its ligand
[7] = transcription factor +/- ligand, control = 1.00
[8] = RVRa promoter, HR component without or with ligand
[9] = mCAR promoter, HR/ligand component
[10] = Dio2, HR component without or with its ligand

B1: SHP: Small Heterodimer Partner (NR0B2), cDNA driver (protein, UniProt Q15466 1-257, looked up)
Nuclear receptor subfamily 0 …: MSTSQPGACPCQGAASRPAILYALLSSSLKAVPRPRSRCLCRQHRPVQLCAPHRTCREALDVLAKTVAFLRNLPSFWQLPPQDQRRLLQGCWGPLFLLGLAQDAVTFEVAEAPVPSILKKILLEEPSSSGGSGQLPDRPQPSLAAVQWLQCCLESFWSLELSPKEYACLKGTILFNPDVPGLQAASHIGHLQQEAHWVLCEVLEPWCPAAQGRLTRVLLTASTLKSIPTSLLGDLFFRPIIGDVDIAGLLGDMLLLR
- Luc. act., normalized to lacZ [1, 6]: 4.8
- Normalized Luc. act., normalized to control [1, 6]: 1.1
- mDio1 promoter reporter activity [1, 7]: 1.07
- Luc. act., normalized to lacZ [2, 8]: 22.7
- Normalized Luc. act., normalized to control [2, 8]: 0.8
- negative reciprocal of normalized Luc. act. (fold repression; Table 33) ([2]; RVRa promoter, given only where activity is below control): −1.229
- normalized Luc. act. on a logarithmic scale (column without head, Table 33) ([2]; RVRa promoter, log10 of activity normalized to control): −0.09
- mRevErba promoter reporter activity [2, 7]: 0.81
- luciferase activity normalized to lacZ activity and to a control, mCAR ([3]; mCAR promoter-luciferase, CV-1 cells, NHR +/- ligand, control = 1.00): 0.95
- Luc. act., normalized to lacZ [3, 9]: 36.17
- Normalized Luc. act., normalized to control [3, 9]: 0.9
- Luc. act., normalized to lacZ [4, 10]: 18.4
- Normalized Luc. act., normalized to control [4, 10]: 1.2
- mDio2 promoter reporter activity [4, 7]: 1.17
- Results of assays of transcription factor (+/- ligand) with mPOMC ([5]; Table 6d, luciferase activity relative to control (control = 1.00)): 0.95
- Luc. act., normalized to lacZ ([5]; mPOMC promoter, HR component with or without ligand): 65.6
- Normalized Luc. act., normalized to control ([5]; mPOMC promoter, HR component with or without ligand, relative to control): 1.0
